Measurements published in PMC11666439.

Columns and labels:
[1] = target: ACE-2-Fc fusion protein (human) (UniProt Q9BYF1); test: BLI
[2] = target: SARS-CoV-2 spike wt (in-house) (SARS-CoV-2) (UniProt P0DTC2); test: ELISA

Sequence of UniProt Q9BYF1 (Q9BYF1 18-740): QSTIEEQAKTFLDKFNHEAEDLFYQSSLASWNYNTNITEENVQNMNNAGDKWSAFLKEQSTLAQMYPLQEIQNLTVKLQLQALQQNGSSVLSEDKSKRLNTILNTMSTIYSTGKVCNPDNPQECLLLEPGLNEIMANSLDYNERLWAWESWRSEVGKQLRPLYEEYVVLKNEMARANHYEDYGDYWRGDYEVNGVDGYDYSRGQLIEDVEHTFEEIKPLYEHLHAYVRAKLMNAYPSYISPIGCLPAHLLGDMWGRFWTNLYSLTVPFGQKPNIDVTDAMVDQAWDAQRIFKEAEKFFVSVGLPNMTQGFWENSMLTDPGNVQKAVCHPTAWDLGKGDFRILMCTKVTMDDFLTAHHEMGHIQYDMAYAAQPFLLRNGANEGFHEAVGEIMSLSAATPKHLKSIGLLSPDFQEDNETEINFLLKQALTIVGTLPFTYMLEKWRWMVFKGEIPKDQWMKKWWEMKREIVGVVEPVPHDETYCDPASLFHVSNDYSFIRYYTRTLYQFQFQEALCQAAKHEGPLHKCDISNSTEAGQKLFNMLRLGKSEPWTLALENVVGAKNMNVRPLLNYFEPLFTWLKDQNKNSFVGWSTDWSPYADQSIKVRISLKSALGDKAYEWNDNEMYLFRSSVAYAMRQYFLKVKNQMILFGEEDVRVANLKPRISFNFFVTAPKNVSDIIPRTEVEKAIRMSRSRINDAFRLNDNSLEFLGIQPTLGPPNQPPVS

Substance	Kd [1] [nM]	fold improvement of kdis compared to the wt [1] [fold]	koff [1] [s⁻¹]	kon [1] [M⁻¹ s⁻¹]	fold increase of binding after total IgG depletion of vaccinee plasma [2] [fold]
SARS-CoV-2 RBD Omicron BA.2 (domain or fragment)	4.47	1.76	0.0032	716000	
SARS-CoV-2 RBD wt (domain or fragment)	23.4				
native MBL from sera (from UniProt P11226 21-248) (natural protein)					2.6
